# Laboratory results reported in patent US20260209319A1 (JECHO LABORATORIES, published 2026).
# What was measured:
# [1] = biological target: T1, mesothelin on the cell surface (OVCAR3, Capan-2 cells) (UniProt Q13421 296-598); assay: cell-based or functional assay
# CD3 on Jurkat cells = biological target: T2, CD3 on Jurkat cells (UniProt P07766 23-207); assay: flow cytometry on Jurkat cells
# T2 construct: whole, on cells; Part of the TCR/CD3 complex on cells
# [2] = biological target: T1, mesothelin on the cell surface (OVCAR3, …); assay: flow cytometry on OVCAR3 cells
# [3] = biological target: T3, mesothelin (soluble, recombinant) (UniProt Q13421 296-580, limits assumed); assay: method not stated; quoted in the T cell activation example
# T3 construct: also called MSLN; soluble MSLN
# [4] = biological target: T3, mesothelin (soluble, recombinant); assay: Octet BLI, bsAb captured on AHC biosensors, mesothelin 0-200 nM, 1:1 model
# Excerpt: The Fe-epitope anti-human capture (AHC) biosensors from ForteBio were used for loading the testing bsAbs. […] A probe loaded with a control antibody was used as a reference sensor. […] The dissociation constants (KD) and Kₒₙ/Koff are estimated by fitting to the 1:1 binding model. The probes were regenerated for multiple rounds of measurements.
# [5] = biological target: T3, mesothelin (soluble, recombinant); assay: cell-based or functional assay
# [6] = biological target: mesothelin on the cell surface (OVCAR3, Capan-2 cells) (UniProt Q13421 296-598); assay: cell-based or functional assay; remark: listed apart in the source
# [7] = biological target: T3, mesothelin (soluble, recombinant); assay: SPR, Biacore 3000, antibody captured via an Fc antibody, mesothelin 0.625-10 nM
# [8] = biological target: T3, mesothelin (soluble, recombinant); assay: SPR (Biacore 3000), antibody captured on the chip via an Fc antibody, mesothelin 0.625-10 nM [text above the curves]
# Description: The measurement was performed by immobilizing the tested antibody and then perfusing with corresponding concentrations of mesothelin.
Binder,"EC50, T cell activation assay (Jurkat NFAT-luciferase reporter) in the presence of Capan-2 cells [1]","EC50, T cell activation assay (Jurkat NFAT-luciferase reporter) in the presence of OVCAR3 cells [1]",EC50 (CD3 on Jurkat cells),EC50 [2],Kd [3],Kd [4],koff [4],kon [4],"EC50, T cell activation assay (Jurkat NFAT-luciferase reporter) in the presence of Capan-2 cells [6]","EC50, T cell activation assay (Jurkat NFAT-luciferase reporter) in the presence of OVCAR3 cells [6]",Kd [7],koff [8],kon [8],fold increase of the IC50 in the luciferase-based cytotoxicity assay on NCI-N87 cells at 200 ng/mL of soluble MSLN [5]
"m912-[L]-scFv^CD3 bsAb (bispecific antibody, V domains shown) VH: QVQLQESGPGLVKPSETLSLTCTVSGGSVSSGSYYWSWIRQPPGKGLEWIGYIYYSGSTNYNPSLKSRVTISVDTSKNQFSLKLSSVTAADTAVYYCAREGKNGAFDIWGQGTMVTVSS VL: not shown",6.92 µg/mL,6.64 µg/mL,0.403 µg/mL,0.572 µg/mL,72 nM,,,,,,,,,
"MSLN-30-[L]-scFv^CD3 bsAb (bispecific antibody, V domains shown) VH: QVQLQESGPGLVKPSETLSLTCTVSGGSVSSRDDLWSWIRQPPGKGLEWIGYIYYSGSTNYNPSLKSRVTISVDTSKNQFSLKLSSVTAADTAVYYCARDFVLSGFDIWGQGTMVTVSS VL: DIQMTQSPSSLSASVGDRVTITCRASQSISSYLNWYQQKPGKAPKLLIYAASSLQSGVPSRFSGSGSGTDFTLTISSLQPEDFATYYCQQPYDASYTFGGGTKVEIK",0.0117 µg/mL,0.0098 µg/mL,0.521 µg/mL,0.0121 µg/mL,,0.00171 nM,2.44e-07 s⁻¹,221000 M⁻¹ s⁻¹,,,,,,
"MSLN-39-[L]-scFv^CD3 bsAb (bispecific antibody, V domains shown) VH: QVQLQESGPGLVKPSETLSLTCTVSGGSVSSFTDTWSWIRQPPGKGLEWIGYIYYSGSTNYNPSLKSRVTISVDTSKNQFSLKLSSVTAADTAVYYCAREDALTGFDIWGQGTMVTVSS VL: DIQMTQSPSSLSASVGDRVTITCRASQSSRYYVNWYQQKPGKAPKLLIYAASSLQSGVPSRFSGSGSGTDFTLTISSLQPEDFATYYCQQSYDASYTFGGGTKVEIK",0.0128 µg/mL,0.0082 µg/mL,0.893 µg/mL,0.0124 µg/mL,,0.00107 nM,4.05e-07 s⁻¹,379000 M⁻¹ s⁻¹,,,,,,27 fold
"HP4-44-[L]-scFv^CD3 bsAb (bispecific antibody, V domains shown) VH: QVQLQESGPGLVKPSETLSLTCTVSGGSVSSGSYYWSWIRQPPGKGLEWIGYIYYSGSTNYNPSLKSRVTISVDTSKNQFSLKLSSVTAADTAVYYCAREDVLSGFDIWGQGTMVTVSS VL: DIQMTQSPSSLSASVGDRVTITCRASQSISSYLNWYQQKPGKAPKLLIYAASSLQSGVPSRFSGSGSGTDFTLTISSLQPEDFATYYCQQSYDAFYTFGGGTKVEIK",0.0105 µg/mL,0.0087 µg/mL,0.636 µg/mL,0.0096 µg/mL,,2.91 nM,0.000809 s⁻¹,278000 M⁻¹ s⁻¹,,,,,,2.5 fold

# More lines, main results first:
"EC50, T cell activation assay (Jurkat NFAT-luciferase reporter) in the presence of Capan-2 cells [1]","EC50, T cell activation assay (Jurkat NFAT-luciferase reporter) in the presence of OVCAR3 cells [1]",EC50 (CD3 on Jurkat cells),EC50 [2],Kd [3],Kd [4],koff [4],kon [4],"EC50, T cell activation assay (Jurkat NFAT-luciferase reporter) in the presence of Capan-2 cells [6]","EC50, T cell activation assay (Jurkat NFAT-luciferase reporter) in the presence of OVCAR3 cells [6]",Kd [7],koff [8],kon [8],Binder,fold increase of the IC50 in the luciferase-based cytotoxicity assay on NCI-N87 cells at 200 ng/mL of soluble MSLN [5]
,,,,,0.00118 nM,3.03e-07 s⁻¹,258000 M⁻¹ s⁻¹,0.0156 µg/mL,0.0116 µg/mL,,,,"MSLN-31-[L]-scFv^CD3 bsAb (bispecific antibody, V domains shown, IgG-[L]-scFv format; also called MSLN-31 bsAb; not shown: IgG heavy constant region (N297G, K322A), light constant region and the huOKT3-scFv with its 3xG4S linker; copies: 2 + 2) VH: QVQLQESGPGLVKPSETLSLTCTVSGGSVSSFTDTWSWIRQPPGKGLEWIGYIYYSGSTNYNPSLKSRVTISVDTSKNQFSLKLSSVTAADTAVYYCARDFVLSGFDIWGQGTMVTVSS VL: DIQMTQSPSSLSASVGDRVTITCRASQSISSYLNWYQQKPGKAPKLLIYAASSLQSGVPSRFSGSGSGTDFTLTISSLQPEDFATYYCQQPYDASYTFGGGTKVEIK",
,,,,,,,,,,0.0564 nM,8.93e-05 s⁻¹,1.58e+06 M⁻¹ s⁻¹,"MSLN-39 IgG (antibody, V domains shown, IgG; also called MSLN-39 antibody; MSLN-39 in IgG format) VH: QVQLQESGPGLVKPSETLSLTCTVSGGSVSSFTDTWSWIRQPPGKGLEWIGYIYYSGSTNYNPSLKSRVTISVDTSKNQFSLKLSSVTAADTAVYYCAREDALTGFDIWGQGTMVTVSS VL: DIQMTQSPSSLSASVGDRVTITCRASQSSRYYVNWYQQKPGKAPKLLIYAASSLQSGVPSRFSGSGSGTDFTLTISSLQPEDFATYYCQQSYDASYTFGGGTKVEIK",
